Experimental data from patent publication US11840574B2, “Anti-DR5 antibody and use thereof” (DONG-A ST CO., LTD., priority 2017, dated 2023).
Where a chain is given by its changes, count along the chain named.

B1: DA22: humanized or deimmunized variant of parental clone D0; CDRs SEQ ID NO 1, 2, 8 / 4, 10, 13 (antibody, V domains shown)
VH: EVQLVESGGGLVQPGGSLRLSCAASGFTFSSFNMLWVRQAPGKGLEWVAGIGKSDRYTGYGSAVKGRFTISRDDSKSTVYLQMNSLRAEDTAVYYCVRDAGSPCGSGGWTGACIDTWGQGTLVTVSS
VL: DIQMTQSPSSLSASVGDRVTITCSGGDSYAGSYYYGWYQQKPGKAPKTLIYNNNNRPSGVPSRFSGSTSGTDFTLTISSLQPEDFATYYCGSRDSSYVGIFGQGTKVEIK
B2: DA23: humanized or deimmunized variant of parental clone D0; CDRs SEQ ID NO 1, 2, 9 / 4, 10, 13 (antibody, V domains shown)
VH: B1 VH with S106K
VL: B1 VL
B3: DA29: humanized or deimmunized variant of parental clone D0; CDRs SEQ ID NO 1, 2, 7 / 4, 10, 13 (antibody, V domains shown)
VH: AVTLDESGGGLQTPGGGLSLVCKGSGFTFSSFNMLWVRQAPGKGLEWVAGIGKSDRYTGYGSAVKGRATISRDDGQSTARLQLNNLRAEDTGTYYCVKDAGSGCGSGGWTGACIDTWGHGTEVIVSS
VL: LTQPSSVSANLGGTVEITCSGGDSYAGSYYYGWYQQKAPGSAPVTVIYNNNNRPSNIPSRFSGSTSGSTATLTITGVQAEDEATYFCGSRDSSYVGIFGAGTTLTVL

Tests used:
Human DR5 [1] = target: T1, Human DR5 (Homo sapiens, UniProt O14763); experiment: TRAIL competitive enzyme-linked immunosorbent assay; assay type: binding; details: 0.01-400 nM of TRAIL protein, absorbance at 405 nm
Protocol: In order to examine antigen-binding characteristics of the antibodies selected in Example 3, a TRAIL competitive enzyme-linked immunosorbent assay was conducted. ELISA plates were coated with 0.1 μg/ml human DR5 (R&D systems, U.S.A.) at 4° C. Thereafter, the plates were incubated with 0.01 nM-1440 nM of antibodies (D0, DA20, DA21, DA21, DA22, and DA23) together with 0.01-400 nM of TRAIL protein for 2 hours. After the plates were washed three times with PBST (0.1% bovine serum albumin and Tween-20 in PBS), HRP (horse radish peroxidase)-conjugated anti-human immunoglobulin Fc was added to each well and incubated for 1 hour. After three washes with PBST, color development was performed for 20 min with ABTS (Thermo, U.S.A.). When the color development reached to a certain level, the reaction was terminated with 1 N sulfuric acid. Absorbance at 405 nm was measured using a spectrophotometer (Molecular Device, U.S.A.) and is depicted in FIGS. 8a and 8b. The antibody AP disclosed in Example (7-1) was used as a control.

[2] = Pharmacokinetics of antibody in nude mice (plasma ELISA); assay type: in vivo; details: intravenous, 10 mg/kg
Protocol: In order to examine in vivo kinetics of the antibodies constructed above, blood half-life was evaluated in mice. Antibodies were intravenously injected at doses of 1-10 mg/kg into nude mice. Blood was sampled from the orbital vein from 5 min to 14 days after injection. The blood collection was conducted using heparinized capillary tubes. Plasma obtained by centrifugation of the blood samples was diluted at certain ratios and used as samples for ELISA evaluation. Human DR5 diluted to a concentration of 10 ng/ml was plated at 100 μl per well onto 96-well immune plates (Nunc, U.S.A.) and adsorbed to the wells for 12-14 hours. The plates were washed three times with buffer solution containing 0.1% Tween 20 and blocked with buffer solution containing bovine serum albumin (Sigma, U.S.A.) at room temperature for 1 hour. After three rounds of washing with buffer solution, the plates were incubated with each of the mouse plasma dilutions and a serial dilution of standard substance at room temperature for 2 to 3 hours. After three washes with buffer solution, a 1:20000 dilution of an HRP-conjugated anti-human immunoglobulin Fc (Fc-HRP) antibody (Bethyl, U.S.A.) was added at a volume of 100 μl per well and incubated at room temperature for 1 hour. After washing three times, 100 μl of a TMB solution (Sigma, U.S.A.) was added to each well and allowed to react. When the color development reached a certain level, the reaction was terminated with 0.2 N sulfuric acid solution. Absorbance at 450 nm was measured using a spectrophotometer (Molecular Device, U.S.A.). The antibody concentration in each plasma sample was calculated from the optical density (OD) measurements, and pharmacokinetic parameters were estimated using WinNonLin ver. 6.2.0.495.

Human DR5 [3] = target: T1, Human DR5; experiment: Binding affinity of antibody to human DR5 (BIAcore, CM5 chip); details: for Ka(1/Ms): association rate, Human DR5, 1:1 Langmuir binding model; for Kd: equilibrium dissociation constant, Human DR5
Procedure, shortened: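 Surface plasmon resonance was run with human DR5 coupled to a CM5 chip. IgG was injected as analyte at 2-fold dilutions from 5 nM to 0.156 nM. Association and dissociation rates were fitted to a 1:1 Langmuir model, and KD was taken as the ratio of the two rate constants.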

[4] = test system: human pancreatic cell line Miapaca-2; experiment: Cell death activity upon co-treatment with TRAIL, Miapaca-2; assay type: cell-based; details: Miapaca-2, antibody as low as 10 ng/ml, TRAIL 0.5, 1, 10 ng/ml
Protocol: (§1) Antibody properties according to epitopes were analyzed in terms of cell death activity upon co-treatment with the constructed antibodies and TRAIL. In this test, the human colorectal cancer cell line Colo205 (ATCC, U.S.A.) and the human pancreatic cell line Miapaca-2 (ATCC, U.S.A.) were employed. The tumor cells were suspended at a concentration of 1×10^5 cells/ml and the suspensions were plated at 50 μl per well into 96-well culture plates, followed by incubation for 16-24 hours in a constant temperature and humidity chamber. Serial dilutions of the antibodies (0.1-10000 ng/ml) and TRAIL protein at determined concentrations (0.5, 1, 10 ng/ml) were applied in combination to the 96-well plates. After incubation for 48 to 72 hours at a constant temperature in a humidified condition, a resazurin solution (Invitrogen, U.S.A.) was added at an amount of 10 μl to per well. When the reaction reached a certain level after 1 to 2 hours, fluorescence was read at 590 nm using a spectrophotometer (Molecular Device). Cell viability was calculated as the percentage of relative fluorescence units (RFU) of a test substance-treated group (treated RFU) to the relative fluorescence units of a culture medium-treated group (untreated RFU) (Cell viability (%)=treated RFU/Untreated RFU×100).
(§2) Representative results are depicted in FIGS. 9a (Colo205) and 9b (Miapaca-2). […]

[5] = test system: human colorectal cancer cell line Colo205; experiment: Cell death activity upon co-treatment with TRAIL, Colo205; assay type: cell-based; details: Colo205, antibody as low as 10 ng/ml, TRAIL 0.5, 1, 10 ng/ml
Protocol: as §1, §2

[6] = test system: human pancreatic cancer cell line Miapaca-2; experiment: Tumor cell death assay, co-treatment with gemcitabine, Miapaca-2; assay type: cell-based; details: Miapaca-2, gemcitabine 3 nM-300 nM, 48 to 72 hours
Protocol: (§3) Effects obtained from co-treatment with the above constructed antibody and gemcitabine were evaluated using in vitro tumor cell death assay.
(§4) The human pancreatic cancer cell lines Miapaca-2 (ATCC, U.S.A.) and Panc-1 (ATCC, U.S.A.) were each suspended at a density of 1×10^5 cells/ml. The suspensions were added in an amount of 50 μl to each well of 96-well cell culture plates and incubated for 16-24 hours in a constant temperature and humidity chamber. The cancer cell lines were treated with the anti-DR5 antibodies of the present disclosure including D0 in combination with certain concentrations (3 nM-300 nM) of gemcitabine and cultured for 48 to 72 hours. The cells were further incubated for 1 to 3 hours after addition of 10 μl of a resazurin solution (Invitrogen, U.S.A.) per well. When the reaction proceeded to a predetermined level, fluorescence was read at 590 nm using a spectrophotometer (Molecular Device). Cell viability was calculated as the percentage of relative fluorescence units (RFU) of a test substance-treated group (treated RFU) to relative fluorescence units of a culture medium-treated group (untreated RFU) (Cell viability (%)=treated RFU/Untreated RFU×100). The results are depicted in FIGS. 6a to 6r. Representative results are depicted in FIGS. 11a (Miapaca-2) and 11b (Panc-1). For comparison, the control antibody AP was treated in the same manner

caspase-3/7 [7] = experiment: Intracellular caspase activity (Apo-ONE Caspase-3/7), Miapaca-2; assay type: cell-based, human; details: Miapaca-2, Ab alone or Ab linked, 4 hours
Protocol: (§5) In order to investigate the cell death mechanism thereof, the constructed antibodies were assayed for caspase activity. The activity of caspase-3/7 was measured using Apo-ONE® Homogeneous Caspase-3/7 Assay kit (Promega, U.S.A.). In this assay, the human colorectal cancer cell line Colo205 (ATCC, U.S.A.), the human pancreatic cancer cell line Miapaca-2 (ATCC, U.S.A.), and the lung cancer cell line H2122 (ATCC, U.S.A.) were employed. A suspension of each tumor cell line having a concentration of 1×10^5 cells/ml was plated at a volume of 50 μl per well into 96-well cell culture plates and cultured for 16-24 hours in a constant temperature and humidity chamber. The cells were treated with predetermined concentrations (0.01-10000 ng/ml) of the antibody alone (Ab alone) or in combination with a crosslinking antibody (anti-human Fc) (Serotec, U.S.A.) (Ab linked) and then cultured for 4 hours. […] When the reaction reached a predetermined level, fluorescence was read at 520 nm using a spectrophotometer (Molecular Device). Caspase activity was calculated as a fold increase of relative fluorescence units (RFU) of a test substance-treated group (treated RFU) to over the relative fluorescence units of a culture medium-treated group (untreated RFU) (Caspase activity=treated RFU/Untreated RFU). […]

caspase-3/7 [8] = experiment: Intracellular caspase activity (Apo-ONE Caspase-3/7), Colo205; assay type: cell-based, human; details: Colo205, Ab alone or Ab linked, 4 hours
Protocol: as §5

caspase-3/7 [9] = experiment: Intracellular caspase activity (Apo-ONE Caspase-3/7), H2122; assay type: cell-based, human; details: H2122, Ab alone or Ab linked, 4 hours
Protocol: as §5

[10] = test system: human pancreatic cancer cell line Panc-1; experiment: Tumor cell death assay, co-treatment with gemcitabine, Panc-1; assay type: cell-based; details: Panc-1, gemcitabine 3 nM-300 nM, 48 to 72 hours
Protocol: as §3, §4

Row | Molecule | antigen binding in the presence of TRAIL (Human DR5 [1]) | Cmax [2] | t½ Terminal (2 d~14 d) [2] | t½ initial (−1 d) [2] | Ka(1/Ms) (Human DR5 [3]) | Kd (Human DR5 [3]) | cell death activity in combination with TRAIL, compared to antibody alone [4] | cell death activity in combination with TRAIL, compared to antibody alone [5] | apoptotic activity upon co-treatment with gemcitabine relative to each individual substance [6] | activity of caspase-3/7 (caspase-3/7 [7]) | activity of caspase-3/7 (caspase-3/7 [8]) | activity of caspase-3/7 (caspase-3/7 [9]) | apoptotic activity upon co-treatment with gemcitabine relative to each individual substance [10]
1 | B1 | maintained a certain level of antigen binding irrespective of TRAIL concentrations | 227.9 µg/mL | 201 h | 16.8 h | 9.32 × 10^05 1/Ms | 0.0342 nM |  |  |  |  |  |  | 
2 | B2 | maintained a certain level of antigen binding irrespective of TRAIL concentrations | 195.8 µg/mL | 191 h | 13.9 h | 6.96 × 10^05 1/Ms | 0.0403 nM | higher cell death activity | higher cell death activity |  |  |  |  | 
3 | B3 |  |  |  |  | 1.21 × 10^06 1/Ms | 0.0698 nM |  |  | increased apoptotic activity | increase in the activity of casapse-3/7 | increase in the activity of casapse-3/7 | increase in the activity of casapse-3/7 | increased apoptotic activity
